The results in this text go back to US20180334702A1 (SYSMEX, published 2018).

No end group written: not given here. *: point of attachment. aminohexane = linker joining biotin to the N-terminal residue; Biotin = O=C1N[C@H]2[C@H](CS[C@H]2CCCCC(=O)*)N1

In the first assay the target is T1, CDK1/cyclin A2 (UniProt P06493 1-297; P20248 1-432, limits assumed). As to the kind of experiment: cell-based or functional assay.
T1 sequence (P06493 whole entry, chain 1 of 2): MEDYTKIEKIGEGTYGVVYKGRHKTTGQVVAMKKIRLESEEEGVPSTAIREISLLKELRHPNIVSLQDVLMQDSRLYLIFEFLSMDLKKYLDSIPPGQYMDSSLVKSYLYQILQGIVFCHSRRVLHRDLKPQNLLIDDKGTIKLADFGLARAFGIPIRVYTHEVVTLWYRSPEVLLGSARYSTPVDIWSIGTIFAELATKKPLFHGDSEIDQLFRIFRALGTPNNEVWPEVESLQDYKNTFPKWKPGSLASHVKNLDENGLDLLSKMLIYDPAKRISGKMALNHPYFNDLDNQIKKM
T1 sequence (P20248 whole entry, chain 2 of 2): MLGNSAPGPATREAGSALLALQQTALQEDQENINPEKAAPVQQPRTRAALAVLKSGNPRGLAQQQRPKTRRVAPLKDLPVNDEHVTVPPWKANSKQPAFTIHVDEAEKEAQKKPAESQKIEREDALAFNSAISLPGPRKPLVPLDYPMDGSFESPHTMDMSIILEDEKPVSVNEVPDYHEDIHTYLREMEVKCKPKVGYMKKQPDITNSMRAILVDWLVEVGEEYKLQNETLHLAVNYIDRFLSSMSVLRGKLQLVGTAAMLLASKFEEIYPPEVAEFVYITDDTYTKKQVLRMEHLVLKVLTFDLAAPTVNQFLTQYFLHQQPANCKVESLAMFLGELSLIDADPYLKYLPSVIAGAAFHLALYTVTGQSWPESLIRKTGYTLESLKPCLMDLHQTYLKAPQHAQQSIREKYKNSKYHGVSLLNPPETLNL
The molecule {Biotin-aminohexane}-GMPWSPNPWWRGGGG [Polypeptide 1] gave a Luminescence intensity of 9.32e+07.

In turn, {Biotin-aminohexane}-PYKISEGLPTPTKMTPRSRI [Comparative Polypeptide 1] displayed a Luminescence intensity of 6.76e+07.

In turn, {Biotin-aminohexane}-RRRFRPASPLRGPPK [Comparative Polypeptide 2] came in with a Luminescence intensity of 4.15e+07.

The target in a further assay is T2, CDK2/cyclin E1 (UniProt P24941 1-298; P24864 1-410). As to the kind of experiment: cell-based or functional assay.
In the case of {Biotin-aminohexane}-GMPWSPNPWWRGGGG [Polypeptide 1], the Luminescence intensity was 9.92e+07.

Turning to {Biotin-aminohexane}-PYKISEGLPTPTKMTPRSRI [Comparative Polypeptide 1], the Luminescence intensity amounted to 1.04e+08.

Turning to {Biotin-aminohexane}-RRRFRPASPLRGPPK [Comparative Polypeptide 2], the Luminescence intensity came to 1.62e+07.

In the next assay the target is T3, CDK4/cyclin D3 (UniProt P11802 1-303; P30281 1-292). Nature of the assay: cell-based or functional assay.
T3 sequence (P11802 whole entry, chain 1 of 2): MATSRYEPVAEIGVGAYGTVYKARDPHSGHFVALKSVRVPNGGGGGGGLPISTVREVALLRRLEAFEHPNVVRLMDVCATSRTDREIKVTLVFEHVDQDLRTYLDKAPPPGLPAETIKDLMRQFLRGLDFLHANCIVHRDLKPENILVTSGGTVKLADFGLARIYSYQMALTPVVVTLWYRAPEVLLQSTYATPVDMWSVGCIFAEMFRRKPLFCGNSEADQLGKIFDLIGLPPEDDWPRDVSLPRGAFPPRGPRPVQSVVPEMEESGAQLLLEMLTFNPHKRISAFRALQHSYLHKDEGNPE
T3 sequence (P30281 whole entry, chain 2 of 2): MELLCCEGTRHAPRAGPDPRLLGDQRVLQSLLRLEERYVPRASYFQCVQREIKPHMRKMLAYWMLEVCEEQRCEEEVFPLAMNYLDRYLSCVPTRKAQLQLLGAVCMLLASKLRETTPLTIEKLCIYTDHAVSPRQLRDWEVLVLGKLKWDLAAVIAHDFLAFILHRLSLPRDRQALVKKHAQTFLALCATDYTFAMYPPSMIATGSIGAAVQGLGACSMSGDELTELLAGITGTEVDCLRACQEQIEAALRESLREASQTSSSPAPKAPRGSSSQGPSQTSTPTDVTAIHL
In turn, {Biotin-aminohexane}-GMPWSPNPWWRGGGG [Polypeptide 1] yielded a Luminescence intensity of 1.01e+08.

For {Biotin-aminohexane}-PYKISEGLPTPTKMTPRSRI [Comparative Polypeptide 1], the Luminescence intensity came out at 811000.

Molecule {Biotin-aminohexane}-RRRFRPASPLRGPPK [Comparative Polypeptide 2] returned a Luminescence intensity of 5.44e+06.

The target in a further assay is T4, CDK6/cyclin D3 (UniProt Q00534 1-326; P30281 1-292). As to the kind of experiment: cell-based or functional assay.
T4 sequence (Q00534 whole entry, chain 1 of 2): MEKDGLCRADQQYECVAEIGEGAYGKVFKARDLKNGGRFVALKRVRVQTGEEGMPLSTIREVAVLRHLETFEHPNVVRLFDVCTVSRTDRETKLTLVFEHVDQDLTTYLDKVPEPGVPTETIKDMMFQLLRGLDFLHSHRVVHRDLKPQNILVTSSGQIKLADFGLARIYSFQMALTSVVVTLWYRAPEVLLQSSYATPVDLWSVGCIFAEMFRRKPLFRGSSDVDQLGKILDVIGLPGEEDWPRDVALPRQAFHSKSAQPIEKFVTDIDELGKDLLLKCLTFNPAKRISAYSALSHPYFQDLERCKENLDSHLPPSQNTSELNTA
T4 sequence (P30281 whole entry, chain 2 of 2): as the sequence (P30281 whole entry, chain 2 of 2) above
For {Biotin-aminohexane}-GMPWSPNPWWRGGGG [Polypeptide 1], the Luminescence intensity came out at 1.22e+08.

For {Biotin-aminohexane}-PYKISEGLPTPTKMTPRSRI [Comparative Polypeptide 1], the Luminescence intensity was determined as 7.42e+06.

{Biotin-aminohexane}-RRRFRPASPLRGPPK [Comparative Polypeptide 2]: the Luminescence intensity came out at 1.73e+07.

The target in a further assay is T1, CDK1/cyclin A2. Nature of the assay: cell-based or functional assay. This is another data set of the same source.
For the molecule {Biotin-aminohexane}-GMPWSPNPWWRGGGG [Polypeptide 1], the “relative value of the luminescence intensity (Comparative Polypeptide 2 = 1.00)” value (“relative value” below) came to 2.24 relative value.

Turning to {Biotin-aminohexane}-PYKISEGLPTPTKMTPRSRI [Comparative Polypeptide 1], the “relative value” value was 1.63 relative value.

Take {Biotin-aminohexane}-RRRFRPASPLRGPPK [Comparative Polypeptide 2]: the “relative value” value stood at 1 relative value.

The target in a further assay is T2, CDK2/cyclin E1. Nature of the assay: cell-based or functional assay. This is another data set of the same source.
As to {Biotin-aminohexane}-GMPWSPNPWWRGGGG [Polypeptide 1], the “relative value” value came to 6.12 relative value.

For {Biotin-aminohexane}-PYKISEGLPTPTKMTPRSRI [Comparative Polypeptide 1], the “relative value” value was 6.44 relative value.

{Biotin-aminohexane}-RRRFRPASPLRGPPK [Comparative Polypeptide 2]: the “relative value” value is 1 relative value.

The target in another assay is T3, CDK4/cyclin D3. As to the kind of experiment: cell-based or functional assay. This is another data set of the same source.
As for {Biotin-aminohexane}-GMPWSPNPWWRGGGG [Polypeptide 1], the “relative value” value is 18.6 relative value.

Take {Biotin-aminohexane}-PYKISEGLPTPTKMTPRSRI [Comparative Polypeptide 1]: the “relative value” value was 0.15 relative value.

On to {Biotin-aminohexane}-RRRFRPASPLRGPPK [Comparative Polypeptide 2], for which the “relative value” value was determined as 1 relative value.

The target in another assay is T4, CDK6/cyclin D3. Nature of the assay: cell-based or functional assay. The source holds these as a separate data set.
Regarding {Biotin-aminohexane}-GMPWSPNPWWRGGGG [Polypeptide 1], the “relative value” value amounted to 7.06 relative value.

With {Biotin-aminohexane}-PYKISEGLPTPTKMTPRSRI [Comparative Polypeptide 1], the “relative value” value is 0.43 relative value.

For {Biotin-aminohexane}-RRRFRPASPLRGPPK [Comparative Polypeptide 2], the “relative value” value was determined as 1 relative value.

A further assay deals with T1, CDK1/cyclin A2. Nature of the assay: cell-based or functional assay. The source holds these as a separate data set.
For the molecule {Biotin-aminohexane}-RRRFRPASPLRGPPK [Comparative Polypeptide 2], the “relative luminescence intensity (CDK6 = 100%)” value is 606%.

Take {Biotin-aminohexane}-PYKISEGLPTPTKMTPRSRI-NH2 [Comparative Polypeptide 3]: the “relative luminescence intensity (CDK6 = 100%)” value was determined as 678%.

In the case of {Biotin-aminohexane}-PYKISEGLPTPAKMAPRSRI-NH2 [Comparative Polypeptide 4], the “relative luminescence intensity (CDK6 = 100%)” value is 3250%.

In the next assay the target is T2, CDK2/cyclin E1. As to the kind of experiment: cell-based or functional assay. The source holds these as a separate data set.
With {Biotin-aminohexane}-RRRFRPASPLRGPPK [Comparative Polypeptide 2], the “relative luminescence intensity (CDK6 = 100%)” value was 198%.

Take {Biotin-aminohexane}-PYKISEGLPTPTKMTPRSRI-NH2 [Comparative Polypeptide 3]: the “relative luminescence intensity (CDK6 = 100%)” value is 766%.

Regarding {Biotin-aminohexane}-PYKISEGLPTPAKMAPRSRI-NH2 [Comparative Polypeptide 4], the “relative luminescence intensity (CDK6 = 100%)” value was 2680%.

The next assay deals with T3, CDK4/cyclin D3. As to the kind of experiment: cell-based or functional assay. The source holds these as a separate data set.
As for {Biotin-aminohexane}-RRRFRPASPLRGPPK [Comparative Polypeptide 2], the “relative luminescence intensity (CDK6 = 100%)” value was 51%.

{Biotin-aminohexane}-PYKISEGLPTPTKMTPRSRI-NH2 [Comparative Polypeptide 3]: the “relative luminescence intensity (CDK6 = 100%)” value came to 7%.

A further assay addresses T1, CDK1/cyclin A2. As to the kind of experiment: cell-based or functional assay. The source holds these as a separate data set.
As for {Biotin-aminohexane}-GGGKAPLTPKDAD [Polypeptide 22], the “relative luminescence intensity (CDK6 = 100%)” value was 27%.

As to {Biotin-aminohexane}-LVEMTGLSPRDIRVD [Polypeptide 26], the “relative luminescence intensity (CDK6 = 100%)” value is 295%.

Turning to {Biotin-aminohexane}-GGGRAAPLSPIPHIPR [Comparative Polypeptide 6], the “relative luminescence intensity (CDK6 = 100%)” value worked out at 119%.

In the case of {Biotin-aminohexane}-RRRFRPASPLRGPPK [Comparative Polypeptide 2], the “relative luminescence intensity (CDK6 = 100%)” value worked out at 318%.

Consider {Biotin-aminohexane}-RRRFRPASPLDGPPD [Polypeptide 18], for which the “relative luminescence intensity (CDK6 = 100%)” value turned out to be 22%.

{Biotin-aminohexane}-LVEMTGLSPRVIRVW [Comparative Polypeptide 7]: the “relative luminescence intensity (CDK6 = 100%)” value amounted to 1150%.

For the molecule {Biotin-aminohexane}-GGGKAPLTPKKAK [Comparative Polypeptide 5], the “relative luminescence intensity (CDK6 = 100%)” value came out at 143%.

For the next assay, the target named is T2, CDK2/cyclin E1. Nature of the assay: cell-based or functional assay. This is another data set of the same source.
Turning to {Biotin-aminohexane}-GGGKAPLTPKDAD [Polypeptide 22], the “relative luminescence intensity (CDK6 = 100%)” value was 15%.

For {Biotin-aminohexane}-GGGRAAPLSPIPHIPR [Comparative Polypeptide 6], the “relative luminescence intensity (CDK6 = 100%)” value amounted to 44%.

Turning to {Biotin-aminohexane}-GGGRAAPLSPDPHIPD [Polypeptide 24], the “relative luminescence intensity (CDK6 = 100%)” value came to 54%.

On to {Biotin-aminohexane}-RRRFRPASPLRGPPK [Comparative Polypeptide 2], for which the “relative luminescence intensity (CDK6 = 100%)” value came out at 321%.

Consider {Biotin-aminohexane}-LVEMTGLSPRVIRVW [Comparative Polypeptide 7], for which the “relative luminescence intensity (CDK6 = 100%)” value was determined as 10%.

Take {Biotin-aminohexane}-GGGKAPLTPKKAK [Comparative Polypeptide 5]: the “relative luminescence intensity (CDK6 = 100%)” value was 156%.

For {Biotin-aminohexane}-GGGRAAPLSPIDHIPD [Polypeptide 25], the “relative luminescence intensity (CDK6 = 100%)” value turned out to be 62%.

A further assay deals with T3, CDK4/cyclin D3. As to the kind of experiment: cell-based or functional assay. The source holds these as a separate data set.
With {Biotin-aminohexane}-GGGKAPLTPKDAD [Polypeptide 22], the “relative luminescence intensity (CDK6 = 100%)” value amounted to 46%.

On to {Biotin-aminohexane}-LVEMTGLSPRDIRVD [Polypeptide 26], for which the “relative luminescence intensity (CDK6 = 100%)” value was found to be 18%.

Consider {Biotin-aminohexane}-GGGRAAPLSPIPHIPR [Comparative Polypeptide 6], for which the “relative luminescence intensity (CDK6 = 100%)” value was found to be 190%.

In the case of {Biotin-aminohexane}-GGGRAAPLSPDPHIPD [Polypeptide 24], the “relative luminescence intensity (CDK6 = 100%)” value amounted to 54%.

As for {Biotin-aminohexane}-RRRFRPASPLRGPPK [Comparative Polypeptide 2], the “relative luminescence intensity (CDK6 = 100%)” value worked out at 245%.

On to {Biotin-aminohexane}-RRRFRPASPLDGPPD [Polypeptide 18], for which the “relative luminescence intensity (CDK6 = 100%)” value was determined as 14%.

For the molecule {Biotin-aminohexane}-GGGKAPLTPLDAD [Polypeptide 23], the “relative luminescence intensity (CDK6 = 100%)” value stood at 37%.

For {Biotin-aminohexane}-LVEMTGLSPRVIRVW [Comparative Polypeptide 7], the “relative luminescence intensity (CDK6 = 100%)” value was found to be 55%.

For the molecule {Biotin-aminohexane}-GGGKAPLTPKKAK [Comparative Polypeptide 5], the “relative luminescence intensity (CDK6 = 100%)” value came to 56%.

Regarding {Biotin-aminohexane}-GGGRAAPLSPIDHIPD [Polypeptide 25], the “relative luminescence intensity (CDK6 = 100%)” value amounted to 40%.

A further assay has as its target T1, CDK1/cyclin A2. Nature of the assay: cell-based or functional assay. This is another data set of the same source.
With {Biotin-aminohexane}-GAPWSPDPWDDGGGG [Polypeptide 28], the “relative reactivity (Polypeptide 3 = 100%)” value is 4%.

In the case of {Biotin-aminohexane}-GAPWSPNDWWDGGGG [Polypeptide 27], the “relative reactivity (Polypeptide 3 = 100%)” value was found to be 13%.

For {Biotin-aminohexane}-GAPWSPNPWWRGGGG [Polypeptide 3], the “relative reactivity (Polypeptide 3 = 100%)” value came to 100%.

A further assay has as its target T2, CDK2/cyclin E1. As to the kind of experiment: cell-based or functional assay. This is another data set of the same source.
Consider {Biotin-aminohexane}-GAPWSPDPWDDGGGG [Polypeptide 28], for which the “relative reactivity (Polypeptide 3 = 100%)” value stood at 13%.

As to {Biotin-aminohexane}-GAPWSPNDWWDGGGG [Polypeptide 27], the “relative reactivity (Polypeptide 3 = 100%)” value came to 20%.

For {Biotin-aminohexane}-GAPWSPNPWWRGGGG [Polypeptide 3], the “relative reactivity (Polypeptide 3 = 100%)” value came to 100%.

The target in the next assay is T3, CDK4/cyclin D3. As to the kind of experiment: cell-based or functional assay. The source holds these as a separate data set.
As to {Biotin-aminohexane}-GAPWSPDPWDDGGGG [Polypeptide 28], the “relative reactivity (Polypeptide 3 = 100%)” value came to 50%.

Turning to {Biotin-aminohexane}-GAPWSPNDWWDGGGG [Polypeptide 27], the “relative reactivity (Polypeptide 3 = 100%)” value was 37%.

For {Biotin-aminohexane}-GAPWSPNPWWRGGGG [Polypeptide 3], the “relative reactivity (Polypeptide 3 = 100%)” value came out at 100%.

In another assay the target is T4, CDK6/cyclin D3. Nature of the assay: cell-based or functional assay. This is another data set of the same source.
Regarding {Biotin-aminohexane}-GAPWSPDPWDDGGGG [Polypeptide 28], the “relative reactivity (Polypeptide 3 = 100%)” value was found to be 25%.

As for {Biotin-aminohexane}-GAPWSPNDWWDGGGG [Polypeptide 27], the “relative reactivity (Polypeptide 3 = 100%)” value was 33%.

Regarding {Biotin-aminohexane}-GAPWSPNPWWRGGGG [Polypeptide 3], the “relative reactivity (Polypeptide 3 = 100%)” value was found to be 100%.
